From article doi:10.1101/2022.05.05.490751

Assays:
Assay in all cases: SPR
[1] = molecular target: NYE 3A peptide on HLA-A*02:01
[2] = molecular target: NYE 3Y peptide on HLA-A*02:01
[3] = molecular target: NYE 4D peptide on HLA-A*02:01
[4] = molecular target: NYE 4E5E8E peptide on HLA-A*02:01
[5] = molecular target: NYE 6T peptide on HLA-A*02:01
[6] = molecular target: NYE 6V peptide on HLA-A*02:01
[7] = molecular target: NYE 9V peptide (NYE-ESO157-165, heteroclitic 9V variant) on HLA-A*02:01

Soluble 1G4 TCR
Kd [1]: 7 µM | Kd [2]: 55 µM | Kd [3]: 139 µM | Kd [4]: 18 µM | Kd [5]: 161 µM | Kd [6]: 17 µM | Kd [7]: 8 µM
